The record followed here is patent publication US20220119534A1 (DRAGONFLY THERAPEUTICS, published 2022).

Experiment [1] deals with T1, mFc-cNKG2D (cynomolgus monkey, UniProt P61252 73-216).
T1 construct: extracellular domain; Made in house (Dragonfly Tx); also called recombinant cyno NKG2D extracellular domain (ECD); mFc-tagged cyno NKG2D dimer; not shown: mouse Fc tag
T1 sequence (looked up): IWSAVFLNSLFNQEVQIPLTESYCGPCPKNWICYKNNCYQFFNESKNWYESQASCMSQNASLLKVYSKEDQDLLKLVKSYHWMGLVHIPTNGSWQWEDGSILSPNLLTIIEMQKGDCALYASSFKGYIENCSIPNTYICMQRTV
In words: SPR Biacore 37 C; mFc-tagged cyno NKG2D dimer, TriNKET as analyte; steady state affinity fit.

The target of experiment [2] is T1, mFc-cNKG2D. In words: SPR Biacore 37 C; mFc-tagged cyno NKG2D dimer, TriNKET as analyte; steady state affinity fit; average of 4. In general terms: SPR reads the build-up and loss of mass on a sensor chip optically.
The target in experiment [3] is T2, Human CLEC12A-His (human, UniProt Q5QGZ9 65-265).
T2 construct: Recombinant soluble protein made in house (Dragonfly Tx); The hCLEC12A spot of the HuProt array is written under this molecule as well; also called hCLEC12A-His; hCLEC12A; not shown: His tag
T2 sequence: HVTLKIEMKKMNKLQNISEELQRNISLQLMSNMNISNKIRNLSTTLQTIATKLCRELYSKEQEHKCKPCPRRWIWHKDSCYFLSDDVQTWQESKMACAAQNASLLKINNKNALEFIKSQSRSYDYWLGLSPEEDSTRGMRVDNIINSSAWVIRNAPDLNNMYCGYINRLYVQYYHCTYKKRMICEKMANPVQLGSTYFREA
In words: SPR Biacore 8K 37 C; TriNKET captured on anti-hFc chip, hCLEC12A-His as analyte; 1:1 fit; after 0.02% H2O2 24 h, n=2.

The target of experiment [4] is T3, mFc-hNKG2D (human, UniProt P26718 73-216).
T3 construct: extracellular domain; Made in house (Dragonfly Tx); the order of tag and ECD follows the name mFc-hNKG2D; also called mFc-tagged human NKG2D; not shown: mouse Fc tag
T3 sequence (looked up): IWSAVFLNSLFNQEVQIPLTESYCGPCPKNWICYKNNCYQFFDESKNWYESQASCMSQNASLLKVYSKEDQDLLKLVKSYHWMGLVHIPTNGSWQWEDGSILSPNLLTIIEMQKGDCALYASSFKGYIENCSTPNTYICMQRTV
Put plainly: SPR Biacore 8K 37 C; mFc-hNKG2D captured on anti-mFc chip, TriNKET as analyte; steady state fit; pH 8.0 control.

Values joined by “and” are separate entries in the source; they are usually repeats but may differ in a detail not shown here. Equal values may be shown once.

B1: F3'-1602 TriNKET (bispecific antibody, human IgG1, kappa)
chain: QLQLQESGPGLVKPSETLSLTCTVSGFSLTNYGLHWIRQPPGKCLEWIGVIWSGGKTDYNPSLKSRVTISKDTSKNQFSLKLSSVQAADTAVYYCAKYDYDDSLDYWGQGTLVTVSSGGGGSGGGGSGGGGSGGGGSDIQMTQSPSSLSASVGDRVTITCHASQNINFWLSWYQQKPGKAPKLLIYEASNLHTGVPSRFSGSGSGTRFTLTISSLQPEDIATYYCQQSHSYPLTFGCGTKLEIKGSDKTHTCPPCPAPELLGGPSVFLFPPKPKDTLMISRTPEVTCVVVDVSHEDPEVKFNWYVDGVEVHNAKTKPREEQYNSTYRVVSVLTVLHQDWLNGKEYKCKVSNKALPAPIEKTISKAKGQPREPRVYTLPPCRDELTKNQVSLTCLVKGFYPSDIAVEWESNGQPENNYKTTPPVLVSDGSFTLYSKLTVDKSRWQQGNVFSCSVMHEALHNHYTQKSLSLSPG
heavy: EVQLVESGGGLVKPGGSLRLSCAASGFTFSSYSMNWVRQAPGKGLEWVSSISSSSSYIYYADSVKGRFTISRDNAKNSLYLQMNSLRAEDTAVYYCARGAPIGAAAGWFDPWGQGTLVTVSSASTKGPSVFPLAPSSKSTSGGTAALGCLVKDYFPEPVTVSWNSGALTSGVHTFPAVLQSSGLYSLSSVVTVPSSSLGTQTYICNVNHKPSNTKVDKKVEPKSCDKTHTCPPCPAPELLGGPSVFLFPPKPKDTLMISRTPEVTCVVVDVSHEDPEVKFNWYVDGVEVHNAKTKPREEQYNSTYRVVSVLTVLHQDWLNGKEYKCKVSNKALPAPIEKTISKAKGQPREPQVCTLPPSRDELTENQVSLTCLVKGFYPSDIAVEWESNGQPENNYKTTPPVLDSDGSFFLYSWLTVDKSRWQQGNVFSCSVMHEALHNHYTQKSLSLSPG
light: DIQMTQSPSSVSASVGDRVTITCRASQGISSWLAWYQQKPGKAPKLLIYAASSLQSGVPSRFSGSGSGTDFTLTISSLQPEDFATYYCQQGVSFPRTFGGGTKVEIKRTVAAPSVFIFPPSDEQLKSGTASVVCLLNNFYPREAKVQWKVDNALQSGNSQESVTEQDSKDSTYSLSSTLTLSKADYEKHKVYACEVTHQGLSSPVTKSFNRGEC
notes: Trispecific F3' format: CLEC12A scFv-Fc paired with NKG2D Fab-Fc; Stressed and control samples of the stability studies are the same molecule; also called AB0237
For orientation: Kd means the constant that tells how readily two partners part at equilibrium. The koff is the first-order rate constant of dissociation. Low readings indicate a long-lived complex, high ones a short-lived complex. In general, kon refers to the rate constant with which the complex forms. For B1, the dissociation constant (Kd) in experiment [1] was 829 nM and 828 nM and 935 nM and 719 nM; in experiment [2], 828 nM; in experiment [3] it was 1.1 nM; in experiment [4], 695 nM. The same molecule showed a koff in experiment [3] of 0.00087 s⁻¹. In experiment [3], this molecule yielded a kon of 806000 M⁻¹ s⁻¹.
